Laboratory results reported in patent publication US20170355757A1 (Regeneron, published 2017).
One block for each binder: values may come before it.

How the values were obtained:
human C5 R885C-mmh [1] = target: human C5 R885C-mmh (human, UniProt P01031 19-1676); assay: cell-based or functional assay
human C5 R885H-mmh [2] = target: human C5 R885H-mmh (human, UniProt P01031 19-1676); assay: cell-based or functional assay
African green monkey C5 = African green monkey C5 (African green monkey); assay: cell-based or functional assay
human C5 [3] = target: T1, human C5 (human, UniProt P01031 19-1676); assay: cell-based or functional assay
monkey C5-mmh [4] = target: T2, monkey C5-mmh (monkey, UniProt P01031 19-1676 (human entry), limits assumed); assay: SPR (Biacore), mAb captured, dissociation of monkey C5 at pH7.4 vs pH6.0, 37°C
T2 construct: recombinant, with C-terminal myc-myc-hexahistidine tag
T2 chain: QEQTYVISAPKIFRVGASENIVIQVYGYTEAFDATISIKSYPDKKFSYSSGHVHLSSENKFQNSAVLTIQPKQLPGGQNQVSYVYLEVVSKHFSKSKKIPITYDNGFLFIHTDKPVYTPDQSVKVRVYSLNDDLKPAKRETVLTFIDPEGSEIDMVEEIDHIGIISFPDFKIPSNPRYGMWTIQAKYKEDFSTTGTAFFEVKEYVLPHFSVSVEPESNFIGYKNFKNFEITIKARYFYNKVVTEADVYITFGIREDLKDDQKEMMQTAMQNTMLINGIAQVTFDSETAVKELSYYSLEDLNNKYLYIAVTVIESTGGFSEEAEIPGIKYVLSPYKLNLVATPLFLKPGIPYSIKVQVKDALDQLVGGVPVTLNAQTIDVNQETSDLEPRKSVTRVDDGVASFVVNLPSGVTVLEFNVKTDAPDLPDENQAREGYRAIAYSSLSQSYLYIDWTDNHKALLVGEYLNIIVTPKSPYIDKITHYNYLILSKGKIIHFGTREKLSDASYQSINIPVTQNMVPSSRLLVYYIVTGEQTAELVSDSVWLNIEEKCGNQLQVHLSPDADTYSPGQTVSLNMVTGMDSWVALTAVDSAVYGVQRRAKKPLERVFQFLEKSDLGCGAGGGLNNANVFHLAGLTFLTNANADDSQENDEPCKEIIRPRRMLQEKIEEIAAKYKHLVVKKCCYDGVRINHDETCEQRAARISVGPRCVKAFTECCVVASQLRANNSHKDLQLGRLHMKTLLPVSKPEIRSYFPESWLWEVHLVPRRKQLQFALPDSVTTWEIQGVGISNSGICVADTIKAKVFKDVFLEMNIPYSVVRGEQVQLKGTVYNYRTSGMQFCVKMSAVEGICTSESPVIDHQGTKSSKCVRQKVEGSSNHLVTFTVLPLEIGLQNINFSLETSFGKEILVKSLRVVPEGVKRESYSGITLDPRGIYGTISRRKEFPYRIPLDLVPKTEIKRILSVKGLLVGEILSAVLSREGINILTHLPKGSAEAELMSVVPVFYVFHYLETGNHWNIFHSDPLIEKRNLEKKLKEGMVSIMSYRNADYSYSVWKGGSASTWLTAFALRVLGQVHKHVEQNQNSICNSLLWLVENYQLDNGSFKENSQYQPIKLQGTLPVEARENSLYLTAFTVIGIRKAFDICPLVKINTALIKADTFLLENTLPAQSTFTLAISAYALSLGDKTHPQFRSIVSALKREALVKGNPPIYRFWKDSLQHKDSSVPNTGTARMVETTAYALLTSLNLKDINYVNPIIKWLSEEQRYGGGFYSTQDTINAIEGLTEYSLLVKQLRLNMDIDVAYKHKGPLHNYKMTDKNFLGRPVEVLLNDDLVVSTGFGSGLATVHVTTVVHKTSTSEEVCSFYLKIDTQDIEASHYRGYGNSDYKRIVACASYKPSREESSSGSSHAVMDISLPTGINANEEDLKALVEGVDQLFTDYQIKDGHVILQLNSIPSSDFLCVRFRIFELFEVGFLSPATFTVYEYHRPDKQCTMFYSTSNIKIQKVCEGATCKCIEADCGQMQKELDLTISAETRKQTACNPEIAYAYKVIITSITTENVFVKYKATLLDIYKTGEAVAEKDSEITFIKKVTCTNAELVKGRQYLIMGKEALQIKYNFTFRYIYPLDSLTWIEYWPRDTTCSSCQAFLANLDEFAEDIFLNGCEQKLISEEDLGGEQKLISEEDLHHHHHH

human C5 [5] = target: T1, human C5; assay: cell-based or functional assay; remark: listed apart in the source
Cynomolgus monkey C5 = Cynomolgus monkey C5 (cynomolgus monkey, UniProt A0A2K5U1T1 19-1676); assay: cell-based or functional assay
monkey C5-mmh [6] = target: T2, monkey C5-mmh; assay: SPR (Biacore), mAb captured, dissociation of monkey C5 at pH7.4 vs pH6.0, 25°C
human C5 R885H-mmh [7] = target: T3, human C5 R885H-mmh (human, UniProt P01031 19-1676); assay: SPR, mAb captured via anti-hFc, 25C
T3 construct: also called human C5 variant R885H
Summary of the method: (§1)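 Sensorgrams of tagged or untagged C5 binding to anti-hFc-captured mAbs, fitted 1:1; KD calculated from the ratio of rate constants.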

human C5 R885C-mmh [8] = target: T4, human C5 R885C-mmh (human, UniProt P01031 19-1676); assay: SPR, mAb captured via anti-hFc, 25C
T4 construct: also called human C5 variant R885C
Summary of the method: as §1

human C5 [9] = target: T5, human C5 (human, UniProt P01031 19-1676); assay: SPR, mAb captured via anti-hFc, dissociation at pH7.4 vs pH6.0, 25C
T5 construct: Bought human C5 (EMD #204888, said elsewhere to be purified from plasma); also called hC5; complement component 5
Summary of the method: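 Anti-C5 mAbs (human IgG4 Fc) captured on an amine-coupled mouse anti-human Fc surface; recombinant C5 dissociation followed by Biacore T200 in PBS-T (0.01M phosphate, 0.15M NaCl, 0.05% Tween-20) at pH7.4 or pH6.0. Dissociative half-life (t½) calculated from kd.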

human C5 R885H-mmh [10] = target: T3, human C5 R885H-mmh; assay: SPR, mAb captured via anti-hFc, 37C
Summary of the method: as §1

monkey C5-mmh [11] = target: T6, monkey C5-mmh (monkey, UniProt P01031 19-1676 (human entry), limits assumed); assay: SPR, mAb captured via anti-hFc, 37C
T6 construct: Recombinant monkey C5 with a C-terminal myc-myc-hexahistidine tag
T6 chain: T2 chain
Summary of the method: as §1

human C5 R885C-mmh [12] = target: T4, human C5 R885C-mmh; assay: SPR, mAb captured via anti-hFc, 37C
Summary of the method: as §1

IC50, inhibition of CDC of Daudi cells, C5 depleted human serum and 6.6 nM C5 Variant R885C (human C5 R885C-mmh [1]): 0.45 nM
IC50, inhibition of CDC of Daudi cells, C5 depleted human serum and 6.6 nM C5 Variant R885H (human C5 R885H-mmh [2]): 1.2 nM
IC50, inhibition of CDC of Daudi cells, 1.66% African Green monkey serum (African green monkey C5): 14 nM
IC50, inhibition of CDC of Daudi cells, 1.66% human serum (human C5 [3]): 1.7 nM
t½ Ratio pH7.4/pH6.0 (monkey C5-mmh [4]): 2.4
t½ Ratio pH7.4/pH6.0 (monkey C5-mmh [6]): 5.8
B1: H4H12183P2 (antibody, human IgG4, V domains shown)
VH: QVQLQESGPALVKPSQTLSLTCTVSGGSIIRGSTYWSWVRQFPGKGLEWIGYSYYSGTAYYNPSLESRATISVDTSKNQFSLNLKSVTAADTAVYYCTREIGVAGLFDIWGQGTLVTVSS
VL: not shown
notes: H4H: human IgG4 Fc with S108P hinge mutation
Human AP % Max Inhibition, hemolysis assay, NHS (human C5 [5]): 78.9%
Human AP IC50, hemolysis assay, NHS (human C5 [5]): 160 nM
Human CP % Max Inhibition, hemolysis assay, NHS (human C5 [5]): 99.9%
Human CP IC50, hemolysis assay, NHS (human C5 [5]): 5.88 nM
Cyno AP % Max Inhibition, hemolysis assay, 5% serum (Cynomolgus monkey C5): 100%
Cyno CP % Max Inhibition, hemolysis assay, 5% serum (Cynomolgus monkey C5): 64.6%
Cyno Serum AP IC50, hemolysis assay, 5% serum (Cynomolgus monkey C5): 29.6 nM
Cyno Serum CP IC50, hemolysis assay, 5% serum (Cynomolgus monkey C5): 142 nM

100 nM Human C5 R885H-mmh Bound (RU) (human C5 R885H-mmh [7]): 442 RU
Kd (human C5 R885H-mmh [7]): 0.394 nM
koff (human C5 R885H-mmh [7]): 0.000161 s⁻¹
kon (human C5 R885H-mmh [7]): 409000 M⁻¹ s⁻¹
t1/2 (human C5 R885H-mmh [7]): 72 min
100 nM Human C5 R885C-mmh Bound (RU) (human C5 R885C-mmh [8]): 427 RU
Kd (human C5 R885C-mmh [8]): 0.447 nM
koff (human C5 R885C-mmh [8]): 0.00016 s⁻¹
kon (human C5 R885C-mmh [8]): 357000 M⁻¹ s⁻¹
t1/2 (human C5 R885C-mmh [8]): 72 min
t1/2 Ratio pH7.4/pH6.0 (human C5 [9]): ≤ 0.5
100 nM Human C5 R885H-mmh Bound (RU) (human C5 R885H-mmh [10]): 64 RU
Kd (human C5 R885H-mmh [10]): 1.5 nM
koff (human C5 R885H-mmh [10]): 0.000839 s⁻¹
kon (human C5 R885H-mmh [10]): 559000 M⁻¹ s⁻¹
t1/2 (human C5 R885H-mmh [10]): 14 min
100 nM monkey C5-mmh Bound (RU) (monkey C5-mmh [11]): 60 RU
Kd (monkey C5-mmh [11]): 1.67 nM
koff (monkey C5-mmh [11]): 0.000871 s⁻¹
kon (monkey C5-mmh [11]): 521000 M⁻¹ s⁻¹
t1/2 (monkey C5-mmh [11]): 13 min
100 nM Human C5 R885C-mmh Bound (RU) (human C5 R885C-mmh [12]): 61 RU
Kd (human C5 R885C-mmh [12]): 2.05 nM
koff (human C5 R885C-mmh [12]): 0.00087 s⁻¹
kon (human C5 R885C-mmh [12]): 424000 M⁻¹ s⁻¹
t1/2 (human C5 R885C-mmh [12]): 13 min
B2: H4H12170P (antibody, human IgG4, V domains shown)
VH: QVQLVESGGGVVQPGRSLRLSCAASGFTFSGYGMHWVRQAPGKGLEWVALIWLDGSNDYYADSVKGRFTISRDNSKNTLYLQMNRLRAEDTAVYYCARDGPVAAIPDYWGQGTLVTVSS
VL: DIQMTQSPSTLSASVGDRVTITCRASQSISRWLAWYQLKPGKAPKLLIYKASSLESGVPSRFSGSGSGTDFTLTISSLQPDDFATYYCQQYNTYSYTFGQGTKLEIK
notes: Human IgG4 Fc with S108P hinge mutation (H4H)
